Measured values from publication doi:10.1101/2021.07.23.453429 (bioRxiv, 2021).

B1: cyclophilin D (enzyme)
chain: not shown

What was measured:
cyclophilin D = biological target: B1; assay: SPR
full-length p53 = full-length p53 (UniProt P04637 1-393); assay: SPR

cyclophilin D, sequence (P30405 43-207): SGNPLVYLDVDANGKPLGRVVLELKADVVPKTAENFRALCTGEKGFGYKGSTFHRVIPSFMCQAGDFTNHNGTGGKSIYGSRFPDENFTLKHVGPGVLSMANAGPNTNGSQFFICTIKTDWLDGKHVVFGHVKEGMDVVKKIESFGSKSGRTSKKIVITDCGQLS

| Kd (full-length p53) [µM] | Binder | Kd (cyclophilin D) [µM] |
| --- | --- | --- |
|  | p53 NTD 20-70 (domain or fragment) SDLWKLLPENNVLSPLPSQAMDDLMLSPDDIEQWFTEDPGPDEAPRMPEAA | 9.4 |
| ~1 | B1 |  |
